In US20200308299A1, “ANTI-GPC-1 ANTIBODY” (National University Corporation Kochi University, priority 2017, published 2020):

Legend:
[1] = test system: DU145 cells; assay: ADC assay combining anti-GPC-1 antibody and MMAF binding secondary antibody in DU145 cells; type: cell-based
Experimental: 2000 DU145 cells were added to a 96-well plate at 80 μl. The cells were cultured overnight at 37° C. in a 5% CO2 incubator. The next day, 10 μl each of anticancer agent binding secondary antibody (2 μg/ml) and primary antibody concentrated 10-fold relative to the final concentration was added to each well, so that the total amount was 100 μl. The cells were cultured for 3 days at 37° C. in a 5% CO2 incubator. The cell viability was measured by using a CellTiter-Glo Luminescent Cell Viability Assay reagent to detect the amount of ATP. RPMI1640+10% FBS+1% PS was used as the medium. The final concentrations of the primary antibodies were […]. 2 μg/ml of Fab-aMFc-CL-MMAF (model number AM202AF-50, Moradec) was used as the secondary antibody. The EC50 value was analyzed with GraphPad Prism 6. The same experiment was conducted using 4000 MDA-MB231 cells as the control.

[2] = test system: TE14 cell strain; assay: In vivo antitumor effect of unlabeled anti-GPC1 antibody, TE14 graft in SCID mice; set-up: species or system mouse
Experimental: Specifically, 2.0×10^6 cells of TE14 cell strain were subcutaneously grafted into female SCID mice (6 week old, n=9). When the tumor size reached about 100 mm^3 on about day 10 to 14 after grafting, administration of control mouse IgG2a (sigma, M7769) and anti-GPC1 antibody 01a033 each at 10 mg/kg was started, which were intraperitoneally administered on day 0, day 3, day 7, day 10, day 14, and day 17, with the day starting the administration considered 0 day. The tumor volume was measured on day 0, day 3, day 7, day 10, day 14, day 17, day 21, day 24, day 28, and day 31.

[3] = test system: TE4, TE5, TE6, TE8, TE9, TE10, TE11, TE14, TE15, HeLa, ME180; assay: In vitro antitumor effect of unlabeled antibody (CellTiter-Glo); type: cell-based; details: 6 days
Experimental: 2000 cells were added to a 96-well plate at 90 μl. The cells were cultured overnight at 37° C. in a 5% CO2 incubator. The next day, 10 μl of an unlabeled primary antibody concentrated […] relative to the final concentration was added to each well, so that the total amount was 100 μl. The cells were cultured for 6 days at 37° C. in a 5% CO2 incubator. The cell viability was measured by using a CellTiter-Glo Luminescent Cell Viability Assay reagent to detect the amount of ATP.

[4] = test system: LK2 cells; assay: In vitro ADC assay, LK2 cells; type: cell-based, human; details: 144 hours; LK2 hardly express GPC1
Experimental: (§1) Preparation of a conjugate of mouse anti-Glypican-1 mAb (01a033), mouse IgG2a (biolegend #400224) as a control, and mc-vc-PAB-MMAF was commissioned to MORADEC. An anticancer agent was conjugated to a cysteine residue via a cleavable linker. The DAR (drug-antibody ratio) was as follows. GPC1-CL-MMAF DAR=3.8, mouse IgG2a-CL-MMAF DAR=4.1.
(§2) (1) The cells were seeded on Thermo Fisher Scientific's 96-well white plate (model no.: 136101) (90 μl cell suspension). RPMI1640+10% FBS+100 U/ml penicillin+100 μg/ml streptomycin was used as the medium. The cells were seeded in 60 wells, and 100 μL of medium was added to 36 wells, and cultured in a 5% CO2 incubator at 37° C. (2) The next day, 10 μL of ADC was added to the cells (total amount: 100 μL). (3) After 144 hours of culture, a CellTiter-Glo™ Luminescence Cell Viability Assay reagent (Promega) was added and mixed at 100 μL/well. (4) Measurements were taken with a plate reader. (5) Analysis was conducted with GraphPad Prism 6.
(§3) The IC50 values were calculated from the following equation (Hossain M M, Hosono-Fukao T, Tang R, Sugaya N, van Kuppevelt T H, Jenniskens G J, Kimata K, Rosen S D, Uchimura K (2010) Direct detection of HSulf-1 and HSulf-2 activities on extracellular heparan sulphate and their inhibition by PI-88. Glycobiology 20(2): 175-186.)
(§4) IC50=10^(Log [A][B]×(50−C)/(D−C)+Log [B]) […]

[5] = test system: BxPC3 cells; assay: In vitro ADC assay, BxPC3 cells; type: cell-based, human; details: BxPC3, 144 hours
Experimental: as §1, §2, §3, §4

[6] = test system: GPC1 positive esophageal cancer cell strains (TE4, TE5, TE6, TE8, TE9, TE10, TE11, TE14, TE15); assay: In vitro ADC assay, GPC1 positive esophageal cancer cell strains; type: cell-based; details: 144 hours of culture
Experimental: as §1, §2, §3, §4

[7] = test system: BxPC3 cell strain; assay: In vivo efficacy test on GPC1 ADC using pancreatic cancer cell strain BxPC3 in SCID mice; set-up: species or system mouse
Experimental: Specifically, 5.0×10^6 cells of the BxPC3 cell strain were subcutaneously grafted into female SCID mice. […] The tumor volume and body weight were measured on day 0, day 4, day 8, day 12, day 16, day 20, day 24, day 28, day 32, and day 36.
After subcutaneous tumorigenesis of BxPC3, (1) PBS, (2) control ADC at 10 mg/kg, and (3) GPC1-ADC at 1 mg/kg, 3 mg/kg, and 10 mg/kg were administered once into the tail vein. The tumor was extracted after 24 hours. After deparaffinization of a section of a paraffin embedded tissue, the slice was dehydrated with alcohol.
Immunohistochemical staining on Phospho-Histon H3 (Ser10) was performed using an anti-Phospho-Histon H3 (Ser10) antibody (Cell Signaling Technology: #9701) and ChemMate Envision kit HRP 500T (Dako: K5007).

[8] = test system: T3M4 cells; assay: In vitro ADC assay, T3M4 cells; type: cell-based, human; details: T3M4, 144 hours
Experimental: as §1, §2, §3, §4

[9] = test system: ME180 cells; assay: In vitro ADC assay, ME180 cells; type: cell-based; details: ME180, 144 hours
Experimental: as §1, §2, §3, §4

| Molecule | activity compared to MIL-38 ([1]; DU145 cells) [fold] | growth suppressing effect against DU145 cells ([1]; primary antibody plus MMAF secondary antibody 2 μg/ml, 3 days) | EC50 values against DU145 cells ([1]; primary antibody plus MMAF secondary antibody, 3 days) | ADCC activity ([2]; concluded from the lack of in vivo antitumor effect) | antitumor effect (tumor volume, tumor weight day 31) ([2]; unlabeled antibody 10 mg/kg ip day 0, 3, 7, 10, 14, 17) | antitumor effect in vitro [3] | antitumor effect against LK2 cells [4] | effect of suppressing cell growth [5] | effect of suppressing cell growth [6] | tumor volume ([7]; 3 mg/kg iv day 0, 4, 8, 12) | tumor volume ([7]; 10 mg/kg iv day 0, 4, 8, 12) | change in the body weight ([7]; any dosage tested (1, 3, 10 mg/kg)) | antitumor effect (tumor volume, tumor weight day 36) ([7]; iv day 0, 4, 8, 12, anti-GPC1 ADC 1, 3, 10 mg/kg (all groups), control ADC 10 mg/kg) | G2/M phase arrest in tumor tissue (Phospho-Histon H3 (Ser10) staining) ([7]; single tail vein dose 1, 3, 10 mg/kg, tumor extracted after 24 hours) | effect of suppressing cell growth [8] | effect of suppressing cell growth [9] |
| --- | --- | --- | --- | --- | --- | --- | --- | --- | --- | --- | --- | --- | --- | --- | --- | --- |
| clone 01a033 (antibody) heavy: QVQLKQSGPELVKPGASVKISCKASGYSFTGYYMHWVKQSPEKSLEWIGEINPSTGDTTYNQKFKAKATLTVDKSSSTAYMQLKSLTSEDSAVYYCAREKRDDGVFAYWGQGTLVTVSSAKTTAPSVYPLAPVCGDTTGSSVTLGCLVKGYFPEPVTLTWNSGSLSSGVHTFPAVLQSDLYTLSSSVTVTSSTWPSQSITCNVAHPASSTKVDKKIEPRGPTIKPCPPCKCPAPNLLGGPSVFIFPPKIKDVLMISLSPIVTCVVVDVSEDDPDVQISWFVNNVEVHTAQTQTHREDYNSTLRVVSALPIQHQDWMSGKEFKCKVNNKDLPAPIERTISKPKGSVRAPQVYVLPPPEEEMTKKQVTLTCMVTDFMPEDIYVEWTNNGKTELNYKNTEPVLDSDGSYFMYSKLRVEKKNWVERNSYSCSVVHEGLHNHHTTKSFSRTPGK light: DIVMSQSPKSMSMSVGERVALSCKASENVGTYVSWYQQKPEQSPKLLIYGASNRYTGVPDRFTGSGSATDFTLTISSVQAEDLADYYCGQSYSYPLTFGAGTKLELKRADAAPTVSIFPPSSEQLTSGGASVVCFLNNFYPKDINVKWKIDGSERQNGVLNSWTDQDSKDSTYSMSSTLTLTKDEYERHNSYTCEATHKTSTSPIVKSFNRNEC | 37 | high growth suppressing effect | excellent EC50 values | does not have ADCC activity | no antitumor effect | not observed against any cell strain | – | – | – | – | – | – | – | – | – | – |
| GPC1 ADC (conjugate) heavy: QVQLKQSGPELVKPGASVKISCKASGYSFTGYYMHWVKQSPEKSLEWIGEINPSTGDTTYNQKFKAKATLTVDKSSSTAYMQLKSLTSEDSAVYYCAREKRDDGVFAYWGQGTLVTVSSAKTTAPSVYPLAPVCGDTTGSSVTLGCLVKGYFPEPVTLTWNSGSLSSGVHTFPAVLQSDLYTLSSSVTVTSSTWPSQSITCNVAHPASSTKVDKKIEPRGPTIKPCPPCKCPAPNLLGGPSVFIFPPKIKDVLMISLSPIVTCVVVDVSEDDPDVQISWFVNNVEVHTAQTQTHREDYNSTLRVVSALPIQHQDWMSGKEFKCKVNNKDLPAPIERTISKPKGSVRAPQVYVLPPPEEEMTKKQVTLTCMVTDFMPEDIYVEWTNNGKTELNYKNTEPVLDSDGSYFMYSKLRVEKKNWVERNSYSCSVVHEGLHNHHTTKSFSRTPGK light: DIVMSQSPKSMSMSVGERVALSCKASENVGTYVSWYQQKPEQSPKLLIYGASNRYTGVPDRFTGSGSATDFTLTISSVQAEDLADYYCGQSYSYPLTFGAGTKLELKRADAAPTVSIFPPSSEQLTSGGASVVCFLNNFYPKDINVKWKIDGSERQNGVLNSWTDQDSKDSTYSMSSTLTLTKDEYERHNSYTCEATHKTSTSPIVKSFNRNEC | – | – | – | – | – | – | hardly exhibited | exhibits an effect of suppressing cell growth | exhibits an effect of suppressing cell growth | tumor volume was significantly reduced | tumor volume was significantly reduced | significant change in the body weight was not observed | significant antitumor effect | resulted in G2/M phase arrest | exhibits an effect of suppressing cell growth | exhibits an effect of suppressing cell growth |
